Source: publication PMC9404779, “Oxidative Implications of Substituting a Conserved Cysteine Residue in Sugar Beet Phytoglobin BvPgb 1.2” (Antioxidants, 2022)
Counter-ions that a name gives are not always drawn. Each block holds one compound with its values, some of them ahead of it.

Columns and labels:
BvPgb1.2 = target: T1, BvPgb1.2 (Beta vulgaris, UniProt V5QR23); test: peroxidase assay, absorbance of ABTS radical cation at […] nm; type: biochemical; details: 10 mM H2O2, 5 mM ABTS, 50 mM Tris-HCl pH 8.5; protein incubated at 22 or 37 °C
T1 construct: gene Bv9_224250_aayd.t2; recombinant from E. coli BL21(DE3), pET-DEST42

[1] = target: BvPgb1.2 Cys86Ala mutant (Beta vulgaris (sugar beet)); test: SEC; analytical SEC, Superdex 75 10/300 GL, 50 mM NaP with 150 mM NaCl pH 7.0, 100 µL of 1 mg/mL protein; MW from retention volume on a calibration curve; dimer of monomers
[2] = target: Wildtype (WT) BvPgb1.2, Class 1 phytoglobin from sugar beet (Beta vulgaris) (Beta vulgaris (sugar beet)); test: as above

T1 sequence (V5QR23 1-171): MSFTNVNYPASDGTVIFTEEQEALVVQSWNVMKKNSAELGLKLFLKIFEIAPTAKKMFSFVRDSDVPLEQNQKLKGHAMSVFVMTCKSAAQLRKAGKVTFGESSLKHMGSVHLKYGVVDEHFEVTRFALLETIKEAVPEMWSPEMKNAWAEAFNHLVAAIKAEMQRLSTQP

Compound: CCn1c(=NN=c2sc3cc(S(=O)(=O)O)ccc3n2CC)sc2cc(S(=O)(=O)O)ccc21 [2,2′-azino-di-(3-ethylbenzthiazolinesulfonic acid) diammonium salt]
- peroxidase assay, absorbance of ABTS radical cation at 415 nm (BvPgb1.2): The detectable radical formation of ABTS was used in this study to quantify this

- degree of dimerization [1]: > 99%
- stoichiometry N [1]: 2
Compound: BvPgb1.2 Cys86Ala mutant (natural protein)

- degree of dimerization [2]: > 99%
- stoichiometry N [2]: 2
Compound: Wildtype (WT) BvPgb1.2, Class 1 phytoglobin from sugar beet (Beta vulgaris) (natural protein)
